Experiments:
MSCs = conditions: Tamama et al. 2010; cited from earlier work
mesenchymal stem cells [1] = test: Mesenchymal stem cell culture with growth factors with or without nicotinamide, cell counts; assay type: cell-based; conditions: growth factor 10 or 50 ng/ml with 5 mM NAM; three or four passages
Procedure: Isolation: Bone marrow derived and adipose tissue derived mesenchymal cells were isolated based on their plastic adherence potential in expansion medium containing: High glucose DMEM and 10% Fetal Bovine Serum (FBS, Hyclone, Logan, Utah, USA) supplemented with 0.05 mg/ml Gentamicin (Sigma) and 2 mM L-glutamine (Biological Industries, Israel). Cells were allowed to adhere for 3-4 days and non-adherent cells were washed out with medium changes. The medium was further exchanged with fresh medium every 3-4 days.
Maintenance and expansion: Once adherent cells reached approximately 80-90% confluency, they were detached with 0.25% trypsin-EDTA (Sigma), washed twice in DMEM and 10% Fetal Bovine Serum, with centrifugation, 400 g, 5 minutes, and re-plated at a 1:2 to 1:1000 dilution under the same culture conditions.
Measurement of number of cells in culture: Cell number was measured using Cedex Automated Cell Counter (Innovatis). The cells were diluted 1:2 in Trypan Blue (Sigma) and cell number was measured automatically under microscope.
Treatment of mesenchymal cultures with nicotinamide: Mesenchymal cultures were initiated as described above, and supplemented with nicotinamide 1-15 mM alone, or in combination with growth factors or growth factors alone, incubated at 37° C. in a humidified atmosphere of 5% CO2 in air. At each passage and at each medium exchange, the cultures were supplemented with mesenchymal medium, nicotinamide and growth factors.
Mesenchymal stem cells were selected and cultured in the presence of particular growth factors (basic fibroblast growth factor—bFGF, heparin binding epidermal growth factor—HB-EGF, fibroblast growth factor 4—FGF-4 and platelet derived growth factor, homodimer, subunit B, PDGF-BB) in the presence and absence of nicotinamide for three or four passages and the number and size of the cells was calculated.
Two concentrations (10 and 50 ng/ml) of each one of the following factors were examined.
In addition, the influence of the combination: 5 mM NAM+50 ng/ml FGF4+50 ng/ml PDGF-BB was examined in comparison to an individual supplement.

mesenchymal stem cells [2] = test: Percent of MSC (CD105+CD45−) analyzed by FACS; assay type: cell-based; conditions: FGF4 or PDGF-BB 50 ng/ml, NAM 5 mM
Procedure: Four different batches of MSC cultures were treated with FGF4 (50 ng/ml), NAM (5 mM) or a combination of FGF4+NAM. Percent of MSC (CD105+CD45−) was analyzed by FACS. FIGS. 7A-D are graphs illustrating that MSC cultures treated with PDGF-BB or a combination of PDGF-BB+NAM comprise a higher fraction of cells other than MSCs that contaminates the cultures as compared to MSC cultured in the absence of PDGF-BB. Four different batches of MSC cultures were treated with PDGF-BB (50 ng/ml), NAM (5 mM) or a combination of PDGF-BB+NAM. Percent of MSC (CD105+CD45−) was analyzed by FACS. Surface antigen analysis: At different time points the cells were detached with 0.25% trypsin-EDTA. […] The cells were then washed in the above buffer and analyzed using a FACScalibur® flow cytometer (Becton Dickinson). […] Emission of 10000 cells was measured using logarithmic amplification, and analyzed using the CellQuest software (Becton Dickinson). Cells stained with FITC- and PE-conjugated isotype control antibodies were used to determine background fluorescence.

MSC = conditions: Stewart et al. 2010; cited from earlier work

Molecule | effect on the ability of nicotinamide to increase proliferation of mesenchymal stem cells (mesenchymal stem cells [1]) | also measured
EGF: Epidermal growth factor | – | increase in number of colony-forming units (MSCs): 25%
basic FGF: basic fibroblast growth factor (bFGF, FGF2) | negative effect | –
PDGF-BB: platelet derived growth factor, homodimer, subunit B (protein, UniProt P01127 82-190, looked up) Platelet-derived growth …: SLGSLTIAEPAMIAECKTRTEVFEISRRLIDRTNANFLVWPPCVEVQRCSGCCNNRNVQCRPTQVQLRPVQVRKIEIVRKKPIFKKATVTLEDHLACKCETVAAARPVT | inconsistent effect | Percent of MSC (CD105+CD45−) in culture (mesenchymal stem cells [2]): contaminated with a higher fraction of cells other than MSCs
HB-EGF: heparin-binding EGF-like growth factor (protein, UniProt Q99075 63-148, looked up) Heparin-binding EGF-like …: DLQEADLDLLRVTLSSKPQALATPNKEEHGKRKKKGKGLGKKRDPCLRKYKDFCIHGECKYVKELRAPSCICHPGYHGERCHGLSL | negative effect | –
BMP-3: member of the transforming growth factor beta family, known to enhance bone differentiation (protein, UniProt P12645 363-472, looked up) Bone morphogenetic protein 3: QWIEPRNCARRYLKVDFADIGWSEWIISPKSFDAYYCSGACQFPMPKSLKPSNHATIQSIVRAVGVVPGIPEPCCVPEKMSSLSILFFDENKNVVLKVYPNMTVESCACR | – | increase in MSC proliferation (MSC): threefold
